Data as given in US12269859B2, “Synthetic immune receptors and methods of use thereof” (Angeles Therapeutics, Inc., priority 2016, dated 2025).

Test system: target antigen-expressing cell line
Assay: Jurkat NFAT-GFP assay, coculture with target cell lines expressing the respective target antigen (summary Table 10A)
Assay type: cell-based, human
Design: key: The signs +/−, +, 2+ etc. after the name of the cell lines indicate the relative degree of positivity on the Jurkat-NFAT-GFP assay as measured by the % GFP positive cells; +: relative degree of positivity on the Jurkat-NFAT-GFP assay as measured by the % GFP positive cells; 2+: relative degree of positivity on the Jurkat-NFAT-GFP assay as measured by the % GFP positive cells
Procedure, shortened: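 Positivity is scored when SIR-expressing reporter Jurkat cells show more GFP-positive cells than parental controls after coculture with the antigen-bearing line. Effector-to-target ratio is about 1:2, coculture lasts roughly 4–18 hours, and GFP is quantified by FACS.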

Molecule	NFAT-GFP ASSAY Positive Cell lines (coculture with RAJI cells)	NFAT-GFP ASSAY Positive Cell lines (coculture with NALM6 cells)
041416-N03 (protein, Polynucleotide encoding a Synthetic Immune Receptor (SIR)) MALPVTALLLPLALLLHAARPDIVMTQSHKFMSTSVGDRVSVTCKASQNVGNNVAWYQQKPGQSPKVLIYSASYRYSGVPDRFTGSGSGTDFTLTISNVQSEDLAEYFCQQYNTYPFTFGSGTKLEIKLEGKPIPNPLLGLDSTGSGEDLKNVFPPEVAVFEPSKAEIAHTQKATLVCLATGFYPDHVELSWWVNGKEVHSGVCTDPQPLKEQPALNDSRYCLSSRLRVSATFWQNPRNHFRCQVQFYGLSENDEWTQDRAKPVTQIVSAEAWGRADCGITSASYHQGVLSATILYEILLGKATLYAVLVSALVLMAMVKRKDSRGRAKRSGSGATNFSLLKQAGDVEENPGPTSMDWIWRILFLVGAATGAHSFEEVQLEESGGGLVQPGGSMKLSCVASGFTFSNYWMNWVRQSPEKGLEWVAEIRFKSHNYATHFAESVKGRFTISRDDSKSSVYLQMNNLRAEDTGIYYCTRRIGNSDYDWWYFDVWGAGTSVTVSSASTREQKLISEEDGSGTPFPSLAPPIMLLVDGKQQMVVVCLVLDVAPPGLDSPIWFSAGNGSALDAFTYGPSPATDGTWTNLAHLSLPSEELASWEPLVCHTGPGAEGHSRSTQPMHLSGEASTARTCPQEPLRGTPGGALWLGVLRLLLFKLLLFDLLLTCSCLCDPAGPLPSPATTTRLRALGSHRLHPATETGGREATSSPRPQPRDRRWGDTPPGRKPGSPVRAKRSGSGVKQTLNFDLLKLAGDVESNPGPSRGHMTEYKPTVRLATRDDVPRAVRTLAAAFADYPATRHTVDPDRHIERVTELQELFLTRVGLDIGKVWVADDGAAVAVWTTPESVEAGAVFAEIGPRMAELSGSRLAAQQQMEGLLAPHRPKEPAWFLATVGVSPDHQGKGLGSAVVLPGVEAAERAGVPAFLETSAPRNLPFYERLGFTVTADVEVPEGPRTWCMTRKPGA	RAJI (+/−)	
032216-Y07 (protein, Polynucleotide encoding a Synthetic Immune Receptor (SIR)) MALPVTALLLPLALLLHAARPDIVMTQSHKFMSTSVGDRVSVTCKASQNVGNNVAWYQQKPGQSPKVLIYSASYRYSGVPDRFTGSGSGTDFTLTISNVQSEDLAEYFCQQYNTYPFTFGSGTKLEIKLEGKPIPNPLLGLDSTGSGEDLKNVFPPEVAVFEPSKAEIAHTQKATLVCLATGFYPDHVELSWWVNGKEVHSGVCTDPQPLKEQPALNDSRYCLSSRLRVSATFWQNPRNHFRCQVQFYGLSENDEWTQDRAKPVTQIVSAEAWGRADCGITSASYHQGVLSATILYEILLGKATLYAVLVSALVLMAMVKRKDSRGRAKRSGSGATNFSLLKQAGDVEENPGPTSMDWIWRILFLVGAATGAHSFEEVQLEESGGGLVQPGGSMKLSCVASGFTFSNYWMNWVRQSPEKGLEWVAEIRFKSHNYATHFAESVKGRFTISRDDSKSSVYLQMNNLRAEDTGIYYCTRRIGNSDYDWWYFDVWGAGTSVTVSSASTREQKLISEEDGSGIQNPDPAVYQLRDSKSSDKSVCLFTDFDSQTNVSQSKDSDVYITDKCVLDMRSMDFKSNSAVAWSNKSDFACANAFNNSIIPEDTFFPSSDVPCDVKLVEKSFETDTNLNFQNLSVIGFRILLLKVAGFNLLMTLRLWSSRAKRSGSGVKQTLNFDLLKLAGDVESNPGPSRGHMTEYKPTVRLATRDDVPRAVRTLAAAFADYPATRHTVDPDRHIERVTELQELFLTRVGLDIGKVWVADDGAAVAVWTTPESVEAGAVFAEIGPRMAELSGSRLAAQQQMEGLLAPHRPKEPAWFLATVGVSPDHQGKGLGSAVVLPGVEAAERAGVPAFLETSAPRNLPFYERLGFTVTADVEVPEGPRTWCMTRKPGA	RAJI (+)	
090116-J01 (protein, Synthetic Immune Receptor (SIR)) MALPVTALLLPLALLLHAARPLEGKPIPNPLLGLDSTGSGEDLKNVFPPEVAVFEPSKAEIAHTQKATLVCLATGFYPDHVELSWWVNGKEVHSGVCTDPQPLKEQPALNDSRYCLSSRLRVSATFWQNPRNHFRCQVQFYGLSENDEWTQDRAKPVTQIVSAEAWGRADCGITSASYHQGVLSATILYEILLGKATLYAVLVSALVLMAMVKRKDSRGRAKRSGSGATNFSLLKQAGDVEENPGPTSMALPVTALLLPLALLLHAARPDIQMTQSPASLSASVGETVTIICRASVNIYSYLAWYQQKQGKSPQLLVYNAKILAEGVPSRFSGSGSGTQFSLKINSLQPEDFGSYYCQHHYGTFTFGSGTKLEIKRGGGGSGGGGSGGGGSQVQLKESGPGLVAPSQSLSITCTISGFSLTSYGVHWVRQPPGKGLEWLVVIWSDGSTTYNSALKSRLSISKDNSKSQVFLKMNSLQTDDTAIYYCASHYGSTLAFASWGHGTLVTVSAATREQKLISEEDGSGIQNPDPAVYQLRDSKSSDKSVCLFTDFDSQTNVSQSKDSDVYITDKCVLDMRSMDFKSNSAVAWSNKSDFACANAFNNSIIPEDTFFPSSDVPCDVKLVEKSFETDTNLNFQNLSVIGFRILLLKVAGFNLLMTLRLWSSRAKRSGSGVKQTLNFDLLKLAGDVESNPGPSRGHMTEYKPTVRLATRDDVPRAVRTLAAAFADYPATRHTVDPDRHIERVTELQELFLTRVGLDIGKVWVADDGAAVAVWTTPESVEAGAVFAEIGPRMAELSGSRLAAQQQMEGLLAPHRPKEPAWFLATVGVSPDHQGKGLGSAVVLPGVEAAERAGVPAFLETSAPRNLPFYERLGFTVTADVEVPEGPRTWCMTRKPGA		(+)
083016-B06 (protein, Polynucleotide encoding a Synthetic Immune Receptor (SIR)) MALPVTALLLPLALLLHAARPLEGKPIPNPLLGLDSTGSGEDLKNVFPPEVAVFEPSKAEIAHTQKATLVCLATGFYPDHVELSWWVNGKEVHSGVCTDPQPLKEQPALNDSRYCLSSRLRVSATFWQNPRNHFRCQVQFYGLSENDEWTQDRAKPVTQIVSAEAWGRADCGITSASYHQGVLSATILYEILLGKATLYAVLVSALVLMAMVKRKDSRGRAKRSGSGATNFSLLKQAGDVEENPGPTSMALPVTALLLPLALLLHAARPDIVMTQSHKFMSTSVGDRVSVTCKASQNVGNNVAWYQQKPGQSPKVLIYSASYRYSGVPDRFTGSGSGTDFTLTISNVQSEDLAEYFCQQYNTYPFTFGSGTKLEIKGGGGSGGGGSGGGGSEVQLEESGGGLVQPGGSMKLSCVASGFTFSNYWMNWVRQSPEKGLEWVAEIRFKSHNYATHFAESVKGRFTISRDDSKSSVYLQMNNLRAEDTGIYYCTRRIGNSDYDWWYFDVWGAGTSVTVSSASTREQKLISEEDLGSGTPFPSLAPPIMLLVDGKQQMVVVCLVLDVAPPGLDSPIWFSAGNGSALDAFTYGPSPATDGTWTNLAHLSLPSEELASWEPLVCHTGPGAEGHSRSTQPMHLSGEASTARTCPQEPLRGTPGGALWLGVLRLLLFKLLLFDLLLTCSCLCDPAGPLPSPATTTRLRALGSHRLHPATETGGREATSSPRPQPRDRRWGDTPPGRKPGSPVRAKRSGSGVKQTLNFDLLKLAGDVESNPGPSRSRGHMTEYKPTVRLATRDDVPRAVRTLAAAFADYPATRHTVDPDRHIERVTELQELFLTRVGLDIGKVWVADDGAAVAVWTTPESVEAGAVFAEIGPRMAELSGSRLAAQQQMEGLLAPHRPKEPAWFLATVGVSPDHQGKGLGSAVVLPGVEAAERAGVPAFLETSAPRNLPFYERLGFTVTADVEVPEGPRTWCMTRKPGA	RAJI (+)	
090116-K02 (protein, Synthetic Immune Receptor (SIR)) MALPVTALLLPLALLLHAARPLEGKPIPNPLLGLDSTGSGEDLKNVFPPEVAVFEPSKAEIAHTQKATLVCLATGFYPDHVELSWWVNGKEVHSGVCTDPQPLKEQPALNDSRYCLSSRLRVSATFWQNPRNHFRCQVQFYGLSENDEWTQDRAKPVTQIVSAEAWGRADCGITSASYHQGVLSATILYEILLGKATLYAVLVSALVLMAMVKRKDSRGRAKRSGSGATNFSLLKQAGDVEENPGPTSMALPVTALLLPLALLLHAARPDIVMTQSHKFMSTSVGDRVSVTCKASQNVGNNVAWYQQKPGQSPKVLIYSASYRYSGVPDRFTGSGSGTDFTLTISNVQSEDLAEYFCQQYNTYPFTFGSGTKLEIKGGGGSGGGGSGGGGSEVQLEESGGGLVQPGGSMKLSCVASGFTFSNYWMNWVRQSPEKGLEWVAEIRFKSHNYATHFAESVKGRFTISRDDSKSSVYLQMNNLRAEDTGIYYCTRRIGNSDYDWWYFDVWGAGTSVTVSSASTREQKLISEEDGSGIQNPDPAVYQLRDSKSSDKSVCLFTDFDSQTNVSQSKDSDVYITDKCVLDMRSMDFKSNSAVAWSNKSDFACANAFNNSIIPEDTFFPSSDVPCDVKLVEKSFETDTNLNFQNLSVIGFRILLLKVAGFNLLMTLRLWSSRAKRSGSGVKQTLNFDLLKLAGDVESNPGPSRGHMTEYKPTVRLATRDDVPRAVRTLAAAFADYPATRHTVDPDRHIERVTELQELFLTRVGLDIGKVWVADDGAAVAVWTTPESVEAGAVFAEIGPRMAELSGSRLAAQQQMEGLLAPHRPKEPAWFLATVGVSPDHQGKGLGSAVVLPGVEAAERAGVPAFLETSAPRNLPFYERLGFTVTADVEVPEGPRTWCMTRKPGA	RAJI (2+), NALM6	(2+)
110116-J04 (protein, Synthetic Immune Receptor (SIR)) MALPVTALLLPLALLLHAARPLEQKLISEEDLGSGDRPDPAVYQLRDSKSSDKSVCLFTDFDSQTNVSQSKDSDVYITDKCVLDMRSMDFKSNSAVAWSNKSDFACANAFNNSIIPEDTFFPSPESSCDVKLVEKSFETDTNLNFQNLSVIGFRILLLKVAGFNLLMTLRLWSSSSRAKRSGSGVKQTLNFDLLKLAGDVESNPGPTSMALPVTALLLPLALLLHAARPDIQMTQSPASLSASVGETVTIICRASVNIYSYLAWYQQKQGKSPQLLVYNAKILAEGVPSRFSGSGSGTQFSLKINSLQPEDFGSYYCQHHYGTFTFGSGTKLEIKRGGGGSGGGGSGGGGSQVQLKESGPGLVAPSQSLSITCTISGFSLTSYGVHWVRQPPGKGLEWLVVIWSDGSTTYNSALKSRLSISKDNSKSQVFLKMNSLQTDDTAIYYCASHYGSTLAFASWGHGTLVTVSAATRGKPIPNPLLGLDSTGSGEDLKNVFPPEVAVFEPSEAEISHTQKATLVCLATGFYPDHVELSWWVNGKEVHSGVCTDPQPLKEQPALNDSRYCLSSRLRVSATFWQNPRNHFRCQVQFYGLSENDEWTQDRAKPVTQIVSAEAWGRADCGFTSESYQQGVLSATILYEILLGKATLYAVLVSALVLMAMVKRKDSRGRAKRSGSGATNFSLLKQAGDVEENPGPSRGHMTEYKPTVRLATRDDVPRAVRTLAAAFADYPATRHTVDPDRHIERVTELQELFLTRVGLDIGKVWVADDGAAVAVWTTPESVEAGAVFAEIGPRMAELSGSRLAAQQQMEGLLAPHRPKEPAWFLATVGVSPDHQGKGLGSAVVLPGVEAAERAGVPAFLETSAPRNLPFYERLGFTVTADVEVPEGPRTWCMTRKPGA	RAJI (2+), NALM6	(2+)
